In one data set the test system is SK-LC-13. Briefly: Western blot of autophagy-related protein LC3-II. The data set is classed as cell-based, human. The following applies: 24 hour incubation. An excerpt:
(§1) Following washing, the membranes were then probed with the appropriate secondary antibody before proteins were finally visualized using ECL reagent (Perkin-Elmer, Fremont Calif., USA).
An assay for the formation of the autophagy-related protein LC3-II assessed if treatment with ADI-PEG 20 was able to induce cellular autophagy in SCLC. […] Chloroquine is a known inhibitor of autophagy that disrupts normal lysosomal functions, and thus results in an increase in the cellular level of LC3-II.
Background: In western blotting, separated proteins are transferred to a membrane and probed.

Another data set deals with SK-LC-13 cells. Briefly: Western blot of active caspase 3. The data set is classed as cell-based, human. As for the experimental part: as §1
In order to determine the possible mechanism of the antiproliferative effects of ADI-PEG 20 a FACS analysis of apoptosis by sub-G1 DNA content was performed. Cells were treated for 72 h before the analysis was performed.

The test system of another data set is SK-LC-13 xenografts. Briefly: Moderately sized SK-LC-13 SCLC xenografts in BALB/c-nude mice. The data set is classed as in vivo. As for the experimental part: The activity of ADI-PEG 20 was also assessed in mice bearing ASS-positive NCI-H69 SCLC xenografts. Small cell lung cancer xenografts were established in female BALB/c-nude mice, 3-4 weeks of age weighing ˜20 g (Charles River Labs, Wilmington, Mass., USA). To establish the tumors, 10×10^6 cells in media were mixed 1:1 with Matrigel High Concentration (BD Biosciences) and injected subcutaneously in the abdominal area of the mice. Tumor growth was regularly measured and tumor volume calculated using the formula (TV=(length×width^2)/2). All animal studies were approved by the MSKCC Institutional Animal Care and Use Committee. Mice were euthanized when tumors reached an approximate volume of 1,000 mm^3.
The anti-tumor efficacy of ADI-PEG 20 was simultaneously assessed in mice bearing either moderate or large SK-LC-13 SCLC xenografts. In the first study, treatment was initiated once tumors had reached an average size of 125 mm^3. In the large xenograft study, treatment was initiated once tumors had reached an average size of 500 mm^3. Arginine deiminase-PEG20 was administered at doses of 1, 2 and 5 IU per animal once every 5 days for 20 days (five doses). To assess the effect of sustained dosing, further groups (n=5) at all dose levels received continued administration of ADI-PEG 20 every 5 days until tumors progressed to the 1,000 mm^3 size limit. Additionally, the efficacy of ADI-PEG 20 was assessed in mice bearing ASS-positive NCI-H69 xenografts. Here, mice received five doses of 2 IU ADI-PEG 20 for 20 days once tumor had reached an average size of 150 mm^3. Arginine deiminase-PEG20 was administered by intraperitoneal injection in all studies. The specific activity of ADI-PEG 20 used in these studies is 9 IU mg^−1 of protein. Thus, 1 IU of ADI-PEG 20 per 20 g mouse is equivalent to 160 IU m^−2.
Efficacy of ADI-PEG 20 treatment in vivo was assessed by comparing means of control and treatment groups using unpaired two-tailed t-tests at the termination of control groups using GraphPad Prism (Version 5.0, GraphPad Software Inc., La Jolla, Calif., USA).

Data set [1] is described as follows: Serum ADI-PEG 20 levels by ELISA. The format is in vivo, mice. As for the experimental part:
(§2) In order to determine the effect of ADI-PEG 20 treatment on systemic arginine levels, mice sera were analyzed using high-performance liquid chromatography (HPLC). L-arginine and L-citrulline were resolved with a Pickering Laboratories PCX 5200 post-column derivatization instrument (Pickering Laboratories, Mountain View, Calif., USA) at 39° C. reaction temperature and a fluorescence detector. […] Total ADI-PEG 20 levels were measured by ELISA, as described previously (Holtsberg et al, J Control Release 80(1-3):259-271, 2002).
In general terms: ELISA stands for enzyme-linked immunosorbent assay.

Data set [2] deals with L-arginine and L-citrulline. Briefly: Serum arginine and citrulline by HPLC. The data set is classed as in vivo, mice. As for the experimental part: as §2
Data set [3] has as its system ASS high osteosarcoma cell line MG63. Put plainly: Sarcoma cell line panel treated with ADI-PEG 20. The format is cell-based.
The subject of another data set is Caki-1 xenografts. Put plainly: Caki-1 renal cell carcinoma xenografts in BALB/c-nude mice. The format is in vivo. The following applies: intramuscular. As for the experimental part: The activity of ADI-PEG 20 was assessed in mice bearing Caki-1 (ATCC No. HTB-46™) xenografts. Renal cell carcinoma Caki-1 xenografts were established in female BALB/c-nude mice, 3-4 weeks of age with a body weight of 20 g (SLAC, Shanghai, China). To establish the tumors, 5×10^6 cells in media were mixed 1:1 with Matrigel High Concentration (BD Biosciences) and injected subcutaneously in the abdominal area of the mice. Tumor growth was regularly measured and tumor volume calculated using the formula (TV=(length×width^2)/2). When tumors reached an approximate volume of 125 mm^3, ADI-PEG20 was administered at doses level of 160, 320 and 640 IU/m^2 once every week for four weeks by intramuscular injection. Each study group had 9 mice. Mice were euthanized when tumors reached an approximate volume of 1100 mm^3. […] More than 80% tumor inhibition was achieved when 640 IU/m^2 was used.
In an additional experiment, the activity of ADI-PEG 20 as either a single agent or in combination with rapamycin was assessed in mice bearing Caki-1 xenograft. Renal cell carcinoma xenografts were established in female BALB/c-nude mice, 3-4 weeks of age weighing about 20 g (SLAC, Shanghai, China). […] Tumor growth was regularly measured and tumor volume calculated using the formula (TV=(length×width^2)/2). […]

B1: ADI-PEG 20: arginine deiminase (ADI) formulated with PEG of 20,000 m.w. (protein)
chain: MSVFDSKFNGIHVYSEIGELETVLVHEPGREIDYITPARLDELLFSAILESHDARKEHQSFVKIMKDRGINVVELTDLVAETYDLASKAAKEEFIETFLEETVPVLTEANKEAVRAFLLSKPTHEMVEFMMSGITKYELGVESENELIVDPMPNLYFTRDPFASVGNGVTIHFMRYIVRRRETLFARFVFRNHPKLVKTPWYYDPAMKMSIEGGDVFIYNNETLVVGVSERTDLDTITLLAKNIKANKEVEFKRIVAINVPKWTNLMHLDTWLTMLDKNKFLYSPIANDVFKFWDYDLVNGGAEPQPQLNGLPLDKLLASIINKEPVLIPIGGAGATEMEIARETNFDGTNYLAIKPGLVIGYDRNEKTNAALKAAGITVLPFHGNQLSLGMGNARCMSMPLSRKDVKW
For the molecule B1, the “cellular level of LC3-II” value with SK-LC-13 is “clear increase in the detectable cellular level of the protein”. Further, the activation of caspases result in the data set on SK-LC-13 cells is “no activation of caspases”. For the same molecule, the “tumor growth relative to control mice” value in the data set with SK-LC-13 xenografts (1, 2 and 5 IU per animal every 5 days, intraperitoneal) was “significant and dose-dependent reduction in tumor growth”. In addition, the “mean tumor volumes, short vs continued dosing” value in the data set with SK-LC-13 xenografts (1 IU (P=0.251)) and with SK-LC-13 xenografts (2 IU (P=0.084)) was “not significantly different” each time. Besides, the “tumor size, continued dosing vs dosing for only 20 days” value with SK-LC-13 xenografts (5 IU every 5 days, at completion of the study (P=0.0063)) is “significantly smaller”. Moreover, the “mean tumor volume of control mice compared with ADI-PEG 20-treated groups” value in the data set on SK-LC-13 xenografts (day 33, regardless of dose or schedule (P>0.0001)) is “significantly larger”. Also, the “ADI-PEG 20 serum levels after end of dosing” value in data set [1] (administered only up to day 20) is given as “return to baseline levels by day 40”. In data set [1] (days 0, 12, 40, 1, 2, 5 IU), the “ADI-PEG 20 serum levels” value was “dose dependent”. Also, the citrulline levels result is recorded as “rose in a dose-dependent relationship to arginine” in data set [2] (1, 2, 5 IU); “Little increase in citrulline levels” in data set [2] (continued dosing, 2 and 5 IU); “increased with extended dosing” in data set [2] (extended dosing, 1 IU). The “serum arginine after end of dosing” value in data set [2] (20 days after the last dose (day 40)) is listed as “returned to normal levels”. Moreover, the arginine serum levels entry in data set [2] (extended dosing, 1 IU) is listed as “below the limits of detection”. For the same molecule, the serum arginine entry in data set [2] (short course of treatment) is “only temporarily depleted serum arginine”. For the same molecule, the cell division entry in data set [3] is “continued to divide”. Further, the tumor growth result with Caki-1 xenografts (160, 320 and 640 IU/m^2 weekly for four weeks) is given as “inhibited tumor growth in a dose dependent manner”. The tumor inhibition result in the data set with Caki-1 xenografts (640 IU/m^2 weekly for four weeks) is “More than 80%”.
